Laboratory results published in PMC3328432 (PLoS Biology, 2012).

B1: human alanine-glyoxylate aminotransferase (AGT), wild type, major allele haplotype (enzyme, UniProt P21549 1-392, looked up)
chain: MASHKLLVTPPKALLKPLSIPNQLLLGPGPSNLPPRIMAAGGLQMIGSMSKDMYQIMDEIKEGIQYVFQTRNPLTLVISGSGHCALEAALVNVLEPGDSFLVGANGIWGQRAVDIGERIGARVHPMTKDPGGHYTLQEVEEGLAQHKPVLLFLTHGESSTGVLQPLDGFGELCHRYKCLLLVDSVASLGGTPLYMDRQGIDILYSGSQKALNAPPGTSLISFSDKAKKKMYSRKTKPFSFYLDIKWLANFWGCDDQPRMYHHTIPVISLYSLRESLALIAEQGLENSWRQHREAAAYLHGRLQALGLQLFVKDPALRLPTVTTVAVPAGYDWRDIVSYVIDHFDIEIMGGLGPSTGKVLRIGLLGCNATRENVDRVTEALRAALQHCPKKKL
modifications: pyridoxal-5'-phosphate (PLP) covalently bound to Lys209
notes: Alanine-glyoxylate aminotransferase (AGT, EC 2.6.1.44), human, major allele haplotype; C-terminus at Leu392; called the complete protein; 86 kDa homodimer; In the import assay in fibroblasts the protein was EGFP-tagged (pEGFP-C1 derived); the functional row uses this molecule; also called AGT(wt); wt-EGFP-AGT (in the import assay); source: E. coli BL21(DE3) RIL, purified (Ni-NTA, TEV cleavage, …)

Experiments:
[1] = molecular target: the molecule itself; test: SEC-MALS; analytical gel filtration and static light scattering (MiniDAWN); complex formed by mixing purified Pex5p(C) and AGT; single components also run
[2] = molecular target: B1; test: as above; conditions: both partners purified
[3] = molecular target: B1; test: ITC; conditions: both partners purified
[4] = molecular target: B1; test: ITC; conditions: both partners purified; remark: listed apart in the source

## B1
[1]
  stoichiometry N: 2

B2: C-terminal cargo-binding segment of human Pex5p (residues 315-639) (domain or fragment)
chain: not shown
notes: Peroxisomal import receptor Pex5p, human, residues 315-639 (seven TPR segments and C-terminal helical bundle); In the functional rows the receptor was the endogenous Pex5p of human fibroblasts; this molecule stands for it; also called Pex5p(C); Pex5p receptor; source: E. coli BL21(DE3) RIL, purified (Ni-NTA, TEV cleavage, second Ni-NTA, gel filtration); not shown: His6, N-terminal, cleaved; GST, …
[2]
  stoichiometry N: 1 Pex5p(C) per AGT chain
[3]
  Kd: 3.5 ± 0.4 µM
[4]
  stoichiometry N: 1
